Laboratory results from patent US20230348603A1 (VERSEAU THERAPEUTICS, published 2023).

Experiments:
Human VSIG4-L-Fc [1] = target: T1, Human VSIG4-L-Fc (human); assay: ligand blocking of iC3b, IgG
T1 construct: also called hVSIG4-L-Fc; hVSIG4-L

Human VSIG4-L-His [2] = target: T2, Human VSIG4-L-His (human, UniProt Q9Y279 20-283); assay: BLI, IgG on AHC sensor, antigen 100 nM
T2 construct: long isoform ECD with His tag; also called hVSIG4-L
T2 sequence: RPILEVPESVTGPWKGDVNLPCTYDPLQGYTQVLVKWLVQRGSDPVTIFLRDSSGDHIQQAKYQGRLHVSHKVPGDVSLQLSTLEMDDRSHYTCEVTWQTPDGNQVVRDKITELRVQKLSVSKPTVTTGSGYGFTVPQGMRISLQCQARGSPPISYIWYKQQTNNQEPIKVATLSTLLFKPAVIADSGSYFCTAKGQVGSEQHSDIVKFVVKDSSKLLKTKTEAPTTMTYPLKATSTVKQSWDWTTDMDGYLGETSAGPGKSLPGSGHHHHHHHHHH

[3] = target: T3, Cynomolgus Monkey VSIG4-L-His (cynomolgus monkey); assay: BLI, IgG on AHC sensor, antigen 100 nM
T3 construct: ECD with His tag; also called cyVSIG4-L; cyno VSIG4-L-His
T3 chain: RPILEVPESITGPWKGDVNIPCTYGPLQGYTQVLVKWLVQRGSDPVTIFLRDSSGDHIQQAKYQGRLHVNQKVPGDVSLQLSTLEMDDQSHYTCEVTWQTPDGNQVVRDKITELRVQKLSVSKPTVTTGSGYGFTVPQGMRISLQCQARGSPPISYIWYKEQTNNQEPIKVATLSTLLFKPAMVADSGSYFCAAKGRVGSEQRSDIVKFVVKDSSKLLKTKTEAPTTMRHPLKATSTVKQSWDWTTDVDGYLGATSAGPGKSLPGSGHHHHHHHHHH

Human VSIG4-L-His [4] = target: T2, Human VSIG4-L-His; assay: BLI (Octet), IgG on AHC sensor, antigen 100 nM
Human VSIG4-S-His = target: T4, Human VSIG4-S-His (human, UniProt Q9Y279 20-283); assay: BLI (Octet), IgG on AHC sensor, antigen 100 nM
T4 construct: short isoform ECD with His tag; also called hVSIG4-S; VISG4-S-His
T4 sequence: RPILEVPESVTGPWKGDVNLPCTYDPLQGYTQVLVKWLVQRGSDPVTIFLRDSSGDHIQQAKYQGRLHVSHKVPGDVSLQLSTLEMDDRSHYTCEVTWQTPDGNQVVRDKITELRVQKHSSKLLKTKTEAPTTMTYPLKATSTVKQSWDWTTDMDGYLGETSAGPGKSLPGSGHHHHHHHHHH

[5] = target: T3, Cynomolgus Monkey VSIG4-L-His; assay: BLI (Octet), IgG on AHC sensor, antigen 100 nM
Human VSIG4-L-Fc [6] = target: T1, Human VSIG4-L-Fc; assay: BLI binning on hVSIG4-L-Fc, competitor 12A08 first;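 also: normalized to binding of second antibody without first competitor antibody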
Human VSIG4-L-Fc [7] = target: T1, Human VSIG4-L-Fc; assay: BLI binning on hVSIG4-L-Fc, competitor 12A12 first;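 also: normalized to binding of second antibody without first competitor antibody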
Human VSIG4-L-Fc [8] = target: T1, Human VSIG4-L-Fc; assay: BLI binning on hVSIG4-L-Fc, competitor 13H11 first;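 also: normalized to binding of second antibody without first competitor antibody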
Human VSIG4-L-Fc [9] = target: T1, Human VSIG4-L-Fc; assay: BLI binning on hVSIG4-L-Fc, competitor 14C05 first;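 also: normalized to binding of second antibody without first competitor antibody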
Human VSIG4-L-Fc [10] = target: T1, Human VSIG4-L-Fc; assay: BLI binning on hVSIG4-L-Fc, competitor 14D12 first;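 also: normalized to binding of second antibody without first competitor antibody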
Human VSIG4-L-Fc [11] = target: T1, Human VSIG4-L-Fc; assay: BLI binning on hVSIG4-L-Fc, competitor 15A06 first;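 also: normalized to binding of second antibody without first competitor antibody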
Human VSIG4-L-Fc [12] = target: T1, Human VSIG4-L-Fc; assay: BLI binning on hVSIG4-L-Fc, competitor 16E03 first;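 also: normalized to binding of second antibody without first competitor antibody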
Human VSIG4-L-Fc [13] = target: T1, Human VSIG4-L-Fc; assay: BLI binning on hVSIG4-L-Fc, competitor 16E10 first;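 also: normalized to binding of second antibody without first competitor antibody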
Human VSIG4-L-Fc [14] = target: T1, Human VSIG4-L-Fc; assay: BLI cross-blocking on hVSIG4-L-Fc, competitor 12A12 first
Human VSIG4-L-Fc [15] = target: T1, Human VSIG4-L-Fc; assay: BLI cross-blocking on hVSIG4-L-Fc, competitor 14C05 first
Human VSIG4-L-Fc [16] = target: T1, Human VSIG4-L-Fc; assay: BLI cross-blocking on hVSIG4-L-Fc, competitor 16G02 first
Human VSIG4-L-Fc [17] = target: T1, Human VSIG4-L-Fc; assay: ligand competition ELISA (FJB), blocked ligand C3b
Human VSIG4-L-Fc [18] = target: T1, Human VSIG4-L-Fc; assay: ligand competition ELISA (FJB), blocked ligand iC3b
[19] = target: T5, Human VSIG4-L-CHO (human VSIG4 long isoform on CHO-K1 cells) (human, UniProt Q9Y279 20-399); assay: flow cytometry (FJB), 200 nM mAb, huVSIG4-L CHO-K1 cells
T5 construct: also called hVSIG4-L (flow cytometry)
T5 sequence: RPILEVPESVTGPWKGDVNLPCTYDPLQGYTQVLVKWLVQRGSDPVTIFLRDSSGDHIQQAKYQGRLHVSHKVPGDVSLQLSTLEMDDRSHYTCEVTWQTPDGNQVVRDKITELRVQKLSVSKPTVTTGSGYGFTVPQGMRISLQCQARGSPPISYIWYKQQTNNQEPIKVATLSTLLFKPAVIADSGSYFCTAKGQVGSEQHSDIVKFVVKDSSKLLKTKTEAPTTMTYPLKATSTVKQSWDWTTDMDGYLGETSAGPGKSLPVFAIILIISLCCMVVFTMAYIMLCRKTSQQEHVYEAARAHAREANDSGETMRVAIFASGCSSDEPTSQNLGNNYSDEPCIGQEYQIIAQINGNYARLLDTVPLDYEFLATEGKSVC

[20] = target: T5, Human VSIG4-L-CHO (human VSIG4 long …); assay: flow cytometry (FJB), 200 nM mAb, huVSIG4-L CHO-K1 over parental CHO-K1

B1: 12A12 mouse/human chimeric IgG4 (S228P) kappa (antibody, V domains shown)
VH: QVQMKQSGAELAKPGASVKMSCKASGYTFTNYWMHWVKQRPGQGLEWIGYINPSTGYTDYNQNFKDRATLTADKSSSTAYMQLSSLTSEDSAVYYCIRGSDYYGRDYWGQGTTLTVSS
VL: DIQMTQTTSSLSASLGDRVTISCRASQDISNYLNWYQQKPDGTLKLLIYYTSRLHSGVPSRFSGSGSGTDYSLTISNLEQEDIATYFCRQGNTLPWTFGGGTKLEIKR
B1 was tested, and the “Percent Blocking iC3b” value (Human VSIG4-L-Fc [1]) was 98%, the “KD relative to parental chimera” value (Human VSIG4-L-His [2]) was 1 fold and the “KD relative to parental chimera” value [3] was 1 fold. For the same binder, the Kd (Human VSIG4-L-His [4]) was 19.1 nM, the Kd (Human VSIG4-S-His) was 15.8 nM and the Kd [5] was 19.5 nM. The “normalized maximum binding nm shift” value (Human VSIG4-L-Fc [6]) was 0.86 normalized, the “normalized maximum binding nm shift” value (Human VSIG4-L-Fc [7]) was 0.13 normalized and the “normalized maximum binding nm shift” value (Human VSIG4-L-Fc [8]) was 0.74 normalized. For the same binder, the “normalized maximum binding nm shift” value (Human VSIG4-L-Fc [9]) was 0.72 normalized, the “normalized maximum binding nm shift” value (Human VSIG4-L-Fc [10]) was 0.7 normalized and the “normalized maximum binding nm shift” value (Human VSIG4-L-Fc [11]) was 0.77 normalized. The “normalized maximum binding nm shift” value (Human VSIG4-L-Fc [12]) was 0.64 normalized, the “normalized maximum binding nm shift” value (Human VSIG4-L-Fc [13]) was 0.62 normalized and the “binding signal (nm shift)” value (Human VSIG4-L-Fc [14]) was 0.13 nm. For the same binder, the “binding signal (nm shift)” value (Human VSIG4-L-Fc [15]) was 0.72 nm, the “binding signal (nm shift)” value (Human VSIG4-L-Fc [16]) was 0.16 nm and the IC50 (Human VSIG4-L-Fc [17]) was 0.9 nM. The IC50 (Human VSIG4-L-Fc [18]) was 0.5 nM, the “Binding (200 nM) MFI” value [19] was 106000 MFI and the “Binding (200 nM) Fold-Over-Parental” value [20] was 291 fold.
